Paper PMC4103810, “Flexibility of PCNA-Protein Interface Accommodates Differential Binding Partners” (PLoS ONE, 2014)
No end group written: not given here. *: point of attachment. FITC = O=C1OC2(c3ccc(O)cc3Oc3cc(O)ccc32)c2ccc(NC(=S)*)cc21; Ahx = NCCCCCC(=O)O

How the values were obtained:
[1] = target: T1, recombinant PCNA protein (Homo sapiens, UniProt P12004); assay: Fluorescence polarization competition assay (displacement of FITC-PL peptide from PCNA); type: binding; parameters: (His)6 (N); TEV protease recognition site (N); made in house; host or cells: E. coli BL21(DE3)
T1 sequence (P12004 whole entry): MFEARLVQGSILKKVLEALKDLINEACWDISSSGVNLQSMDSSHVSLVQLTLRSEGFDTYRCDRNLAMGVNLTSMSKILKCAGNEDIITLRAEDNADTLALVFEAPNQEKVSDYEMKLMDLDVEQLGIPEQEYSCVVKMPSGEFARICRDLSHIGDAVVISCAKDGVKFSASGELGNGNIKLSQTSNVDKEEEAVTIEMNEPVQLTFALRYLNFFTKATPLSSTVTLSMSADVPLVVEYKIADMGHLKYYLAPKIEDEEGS
Procedure: (3) and represented as mean ± standard error of mean (Y). Fraction of the FITC-PL peptide bound (Y) was plotted as a function of the logarithm of the 12 amino acid peptide antagonist concentration (X), and IC50 values were determined by fitting the data to Eq. […] Anisotropy values were also analyzed using complete and incomplete binding models without non-specific effects as outlined in Roehrl et al..

[2] = Aggregation observed in the fluorescence polarization competition assay; type: physicochemical; details: FP competition assay, binding buffer; result in words
Procedure: Competition assays were analyzed by fluorescence polarization on a DTX880 Multimode plate reader (Beckman Coulter) using an excitation of 485 nm and an emission filter at 535 nm at 30°C. Anisotropy values (N = 4) were statistically evaluated using Grubbs' test for outliers at a significance level of 0.05 and converted to fraction of FITC-PL peptide bound (fb) using Eq. (3) and represented as mean ± standard error of mean (Y).

[3] = target: T1, recombinant PCNA protein; assay: ITC; details: cited from earlier work
[4] = target: T2, recombinant PCNA protein (N-terminal (His)6-PCNA) (human, UniProt P12004 1-261); assay: fluorescence polarisation; direct binding: increasing recombinant PCNA (monomer concentration) added to 50 nM FITC-PL peptide; 25 mM HEPES pH 7.4, 10% glycerol, 0.01% Triton X-100; 30 min at room temperature, read at 30°C; fit with a Hill slope; details: both partners purified
T2 construct: PCNA, human; amplified by PCR from a template plasmid (Genecoepia) into pEV-L8, which has an N-terminal (His)6-tag and a TEV protease recognition site; No TEV cleavage is described; also called human PCNA; source: E. coli BL21(DE3), purified (Ni-NTA)
T2 sequence (P12004 whole entry): as above

[5] = target: T2, recombinant PCNA protein (N-terminal …); assay: fluorescence polarisation; competition: increasing unlabeled peptide with 50 nM FITC-PL peptide and 1 µM PCNA (monomer concentration); 25 mM HEPES pH 7.4, 10% glycerol, 0.01% Triton X-100; 30 min at room temperature, read at 30°C; Ki from a modified Cheng-Prusoff equation; details: both partners purified
[6] = target: T3, recombinant PCNA protein (human, UniProt P12004 1-261); assay: fluorescence polarisation; competition: increasing unlabeled 12-mer peptide against 50 nM N-terminal FITC-PL peptide and 1 µM PCNA (monomer concentration); 25 mM HEPES pH 7.4, 10% glycerol, 0.01% Triton X-100; 30 min at room temperature, read at 30°C; fraction of FITC-PL bound fitted to the complete (Eq. 6) or incomplete (Eq. 7, four-state) competition model of Roehrl et al.; estimated dissociation constants; details: both partners purified
T3 construct: PCNA (proliferating cell nuclear antigen), human; The vector has a TEV protease site after the (His)6 tag, and no cleavage is described; also called (His)6-PCNA; source: E. coli BL21(DE3), purified (Ni-NTA, dialysis)
T3 sequence (P12004 whole entry): as above

[7] = target: T2, recombinant PCNA protein (N-terminal …); assay: fluorescence polarisation; competition: increasing unlabeled peptide with 50 nM FITC-PL peptide and 1 µM PCNA (monomer concentration); 25 mM HEPES pH 7.4, 10% glycerol, 0.01% Triton X-100; 30 min at room temperature, read at 30°C; Ki from a modified Cheng-Prusoff equation; details: both partners purified; remark: listed apart in the source

IC50 [5]	Ki [5]	fb at [peptide]max (fraction of FITC-PL bound) [5]	Molecule	further results
			NRQVSITGFFQR [DNA polymerase δ (p66 subunit), 12-amino acid PIP Box peptide modeled after the p66 subunit of DNA polymerase δ]	Hill Slope ([1]; Hill slope n of the fit to Eq. (4), 50 nM FITC-PL, 1 µM PCNA (monomer)): −1.2±0.2
			GVQRNHETAFQG [Mcl-1]	aggregation of the tracer at higher concentrations [2]: not observed; binding to recombinant PCNA in the competition assay ([1]; result in words): did not bind
			p21 12-mer PIP box peptide PIP box (from UniProt P38936)	Kd [3]: 0.64 µM
			RRQTSMTDFYHS-NH2 [p21]	Kd ([1]; estimated dissociation constant of competitive ligand-PCNA interaction, Roehrl et al. binding models, Eq. (6)/(7), read-out: Kd2): 0.615 ± 0.251 µM; Kd ([1]; incomplete competition model (four state), Roehrl et al., Eq. (7), read-out: Kd3): 3.1 ± 0.2 µM
			{FITC-Ahx}-SAVLQKKITDYFHPKK (Synthesised on CLEAR Amide resin, so the C-terminus is probably an amide (surmised); also called FITC-PL peptide; FITC-PL; source: synthetic peptide (solid phase, HPLC purified)) [N-terminal fluorescein isothiocyanate (FITC) labeled PL peptide]	Kd [4]: 0.76 ± 0.019 µM
7.5 ± 0.3 µM	2.9 µM	0	TLQYLLKHFFKL (12-mer modeled after the PIP Box of PI3-kinase p85α, found by a screen of the human genome; Synthesised on CLEAR Amide resin, so the C-terminus is probably an amide (surmised); also called p85α peptide; PI3-kinase (p85α regulatory domain); source: synthetic peptide (solid phase, HPLC purified)) [PI3K (p85α subunit) 12-mer PIP Box peptide mimic]	
			HRFFAGIVWQHV (reverse PIP Box stretch of Akt, found by screening the human genome; Made on CLEAR Amide resin, so the C-terminus is probably an amide; source: synthetic peptide (solid phase, HPLC purified)) [Akt 12-mer reverse PIP Box peptide]	Kd [6]: 2 ± 0.4 µM
			TLQYLLKHFFKL (PIP Box stretch of the PI3-kinase p85α regulatory subunit (PIK3R1), found by screening the human genome; Made on CLEAR Amide resin, so the C-terminus is probably an amide; also called PI3-kinase (p85α regulatory domain); source: synthetic peptide (solid phase, HPLC purified)) [PI3K (p85α subunit) 12-mer PIP Box peptide]	Kd [6]: 1.6 ± 0.6 µM
0.145 ± 0.013 µM	0.136 µM	0	SAVLQKKITDYFHPKK (Synthesised on CLEAR Amide resin, so the C-terminus is probably an amide (surmised); also called control PL peptide; source: synthetic peptide (solid phase, HPLC purified)) [unlabeled POGO-ligase (PL) peptide]	IC50 [7]: 0.144 ± 0.013 µM
			PGQRSISLRYEG (PIP Box stretch of Abl (ABL1), lying in the SH2 domain; Made on CLEAR Amide resin, so the C-terminus is probably an amide; source: synthetic peptide (solid phase, HPLC purified)) [Abl 12-mer PIP Box peptide]	Kd [6]: 52.9 ± 14.7 µM
			NRQVSITGFFQR (PIP Box stretch of the p66 subunit of DNA polymerase δ (POLD3); Made on CLEAR Amide resin, so the C-terminus is probably an amide; source: synthetic peptide (solid phase, HPLC purified)) [DNA polymerase δ (p66 subunit) 12-mer PIP Box peptide]	Kd [6]: 20.8 ± 4.4 µM
71.3 ± 12.1 µM	30.4 µM	0.1	PGQRSISLRYEG (Synthesised on CLEAR Amide resin, so the C-terminus is probably an amide (surmised); also called Abl peptide; source: synthetic peptide (solid phase, HPLC purified)) [Abl 12-mer PIP Box peptide mimic]	
1.8 ± 0.5 µM	0.477 µM	0.25	RRQTSMTDFYHS (12-mer modeled after the C-terminal PIP Box of the tumor suppressor p21; Synthesised on CLEAR Amide resin, so the C-terminus is probably an amide (surmised); also called p21 peptide; p21 12-amino acid peptide; source: synthetic peptide (solid phase, HPLC purified)) [p21 12-mer PIP Box peptide mimic]	
8.5 ± 4.2 µM	3.4 µM	0.06	HRFFAGIVWQHV (12-mer modeled after the reverse PIP Box of Akt, found by a screen of the human genome; Synthesised on CLEAR Amide resin, so the C-terminus is probably an amide (surmised); also called Akt peptide; reverse-PIP Box Akt peptide; source: synthetic peptide (solid phase, HPLC purified)) [Akt 12-mer reverse PIP Box peptide mimic]	
67.9 ± 15.8 µM	28.9 µM	0	NRQVSITGFFQR (12-mer modeled after the PIP Box of the p66 subunit of DNA polymerase δ; Synthesised on CLEAR Amide resin, so the C-terminus is probably an amide (surmised); also called p66 peptide; source: synthetic peptide (solid phase, HPLC purified)) [DNA polymerase δ (p66 subunit) 12-mer PIP Box peptide mimic]	
